Experimental data as given in patent publication US20060211075.

What was measured:
[1] = tested on: peptide 23, Dap-substituted pyrene derivative at Y+3
[2] = tested on: peptide 25, Dab-modified pyrene analogue at Y-2

Sequence of FynT (chain, as listed by the source): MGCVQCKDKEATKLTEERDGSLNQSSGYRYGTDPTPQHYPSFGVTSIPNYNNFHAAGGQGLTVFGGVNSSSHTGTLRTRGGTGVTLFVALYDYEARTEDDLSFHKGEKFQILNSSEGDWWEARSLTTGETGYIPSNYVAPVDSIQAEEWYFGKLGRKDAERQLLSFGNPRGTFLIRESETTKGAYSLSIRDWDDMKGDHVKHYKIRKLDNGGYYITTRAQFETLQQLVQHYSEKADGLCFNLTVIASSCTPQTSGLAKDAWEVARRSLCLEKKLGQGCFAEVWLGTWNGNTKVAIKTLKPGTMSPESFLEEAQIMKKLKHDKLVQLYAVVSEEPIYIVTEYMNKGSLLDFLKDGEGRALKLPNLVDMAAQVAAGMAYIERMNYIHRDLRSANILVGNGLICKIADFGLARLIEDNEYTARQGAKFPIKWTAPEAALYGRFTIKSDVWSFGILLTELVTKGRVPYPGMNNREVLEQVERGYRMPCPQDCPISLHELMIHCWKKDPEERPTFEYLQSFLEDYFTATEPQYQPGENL
Sequence of TrkA (chain, as listed by the source): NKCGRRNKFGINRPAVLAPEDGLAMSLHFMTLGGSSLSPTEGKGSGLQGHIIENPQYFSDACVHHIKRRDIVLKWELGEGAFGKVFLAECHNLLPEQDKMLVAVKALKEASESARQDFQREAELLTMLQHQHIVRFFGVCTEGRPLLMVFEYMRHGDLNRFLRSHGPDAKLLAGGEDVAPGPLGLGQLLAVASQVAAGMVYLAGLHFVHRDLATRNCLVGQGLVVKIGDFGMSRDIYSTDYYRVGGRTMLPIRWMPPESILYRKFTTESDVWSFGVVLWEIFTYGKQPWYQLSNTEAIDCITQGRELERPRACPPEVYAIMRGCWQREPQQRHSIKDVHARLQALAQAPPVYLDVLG
Sequence of Yes (chain, as listed by the source): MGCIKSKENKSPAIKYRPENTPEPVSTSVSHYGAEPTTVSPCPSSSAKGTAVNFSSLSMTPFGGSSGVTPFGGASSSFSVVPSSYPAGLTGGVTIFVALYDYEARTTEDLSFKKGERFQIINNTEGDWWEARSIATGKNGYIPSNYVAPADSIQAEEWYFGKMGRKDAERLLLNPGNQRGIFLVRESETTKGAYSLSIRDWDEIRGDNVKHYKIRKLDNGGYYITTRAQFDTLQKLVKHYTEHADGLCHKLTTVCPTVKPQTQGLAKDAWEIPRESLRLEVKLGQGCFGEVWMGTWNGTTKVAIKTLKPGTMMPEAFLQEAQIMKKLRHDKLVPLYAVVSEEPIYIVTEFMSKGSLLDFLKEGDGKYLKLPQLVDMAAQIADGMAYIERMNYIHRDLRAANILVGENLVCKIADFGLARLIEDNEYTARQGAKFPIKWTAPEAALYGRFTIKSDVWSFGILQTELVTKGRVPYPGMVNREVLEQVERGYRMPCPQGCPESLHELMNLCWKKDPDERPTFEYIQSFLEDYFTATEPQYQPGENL

Row | Substance | phosphorylation of the peptide (fluorescence) [1] | phosphorylation of the peptide (fluorescence) [2] | Km [1] | Vmax [1] | Km [2] | Vmax [2]
1 | EGF | unable to effectively catalyze the phosphorylation of either 23 or 25 | unable to effectively catalyze the phosphorylation of either 23 or 25 |  |  |  | 
2 | Fgr |  |  | 54 µM | 2.3 µmol/min/mg |  | 
3 | FynT |  |  | 69 µM | 0.24 µmol/min/mg |  | 
4 | LynA |  |  | 140 µM | 2.6 µmol/min/mg | 43 µM | 2.6 µmol/min/mg
5 | TrkA |  |  | 350 µM | 1.1 µmol/min/mg |  | 
6 | Yes |  |  | 37 µM | 3.3 µmol/min/mg |  | 
